Here are results for eight sequences from a protein production outcome set (Wang et al. 2014).

This series is described as follows: label from the status in PepcDB records.
Regarding “MNLAYETQSIAERREQLREEGKIELPLNVDTRKYLLSFIRYRDVLISLPLLIAGIVALYIIHRTGIGINSQNVIVCFAPWATFLLLLTIQHPDRKNISFFEHRIVWRIKYNNRQKLFVYTKGDLMGNKKEKDVREQLGISNIYSDCYETTDKRLVKVIKVSSINLSLLNNKEKRMIFQAYETFLNDLPKNLTLQISQIAQPVNLKNYFLFIQEKTSREQDMAKKLLAKGYLDFIDDIQKSKNMVSRNRYVIISKPFTAQNRESVLEELDRQAKILVSQIENMLGGRFQLKAEILNNEELFHLIYTCVDYENAQVNAEIKTSTFPITLGKETYIEMKKRWEKEVTEKII”, the protein production result was “failed”.

Turning to “MNLCGDSEILKEDDNTKNFARKNPDPYPPTGTSLVYLDHLELCLCSTEWWNLLTCILDDAPKLRVLKLKLYRKHCVEYNESMEPWKQPDYVPICLSSYLEIFEWRQYNGEEQEREVAKYILENASRLKKAIFYLESAEKHGILKELECMARGSKKCQLVFD”, the protein production entry is “failed”.

For the sequence “MNLDKVNKYIKDFEKTIKKPKINFDKSKFYVGVDLGTANIVITILDKDGKPVAGVTQRSRVVRDGIVVDFMEAIEIVRKLKENLEKKLGIEITEGYTAIPPGVEQGSVRAIVNVIESAGIDVLKVVDEPTAASYVLGITDGVVVDLGGGTTGISILEKGKVIFVADEPTGGTHMTLVLAGSYGIDFETAEDIKTDKKKEKEVFVQITPVLQKMAAIVKKYIKDYKVKDVFLVGGACSFDGSESIFERELGLNIYKPYMPVYITPLGIALAGMKSLEHHHHHH”, the protein production entry is “not failed”.

For the sequence “MNLEHHSNHYQPTCSIEALQARAKLYQTIRTFFAERGVLEVETPIISQAGVTDVHLASVKALRHIEGKERTQYLQTSPEFAMKRLLASGSGPIYQLCKVFRDDEHGRKHNSEFTMLEWYRPEFDLKDLMHETADLLETCLKQRFDEIRPMILSYKHAFQDRLEINPLQATLKQLKDTADRVGLNLDLGNDRLAYIDLLFSHIVEPSLGFDTPVFLTDFPPEMASLAKVRIDEDGEEVAARFEVYIEGLELANAYDELLDANILRARFEADNLERKLQGLAEMPLDENLLAALPHMPACAGIALGVDRLLMIATRQLKIEQVIAFPAAIA”, the protein production result is on record as “failed”.

In the case of “MNLEPPKAEIRSATRVMGGPVTPRKGPPKFKQRQTRQFKSKPPKKGVQGFGDDIPGMEGLGTDITVICPWEAFNHLELHELAQYGII”, the protein production entry is listed as “not failed”.

For “MNLESITVVLPTRNEAGNIGAFLASLPQAVHLIVVDASEDETPDIIQRERPARTQVLRRRSTITQARQLGAEAALTDWLLFTDADIVFPDGYFDALERVMDAAVVYGPKLSRDRFAAYYRWFGYGQQCSHWLGIPAATGSNLLVRKDALIAVGGFDPALVCNEDSELVWRIKRAGYRIRFEPSLPVYARDHRRLDSGLWRKTCHSVFRCALLYWDLMPARWRGADWGYWSPQQSGRAPGVSRVELEHHHHHH”, the protein production entry is reported as “failed”.

“MNLGQWIGLIALILSLYILWQIKEVLLLMFAAVVLATTLNRLAKRFQRSGMKRGWAVMLAVAIFFAVVVGFFWLIVPPFAEQFNELTYRVPQGFERFNAWINELRTRIPAQLVPYIPDLNSLIQQAQPFINRVLGSSFAIVSGSLEVVLKVLLVLVLTGMLLADPIAYRKVFVRLFPSFYRRRVDGILDQCEVSLEGWVTGAVIAMGVVGLMSVVGLSILGVKAALALGVLAGFLNLIPNLGPTLSVVPAMAIALLDSPWKVVAVLILYFIIQQAESNFITPIVMAQQVSLLPAVTLISQLFFVTFFGFLGLFLALPLTVVAKIWVQEVLIKDVLDEWGHDHSQESELVMVSHYSEGDDHWSDDKQANKPTDDTVSQED”: the protein production result is listed as “failed”.

In the case of “MNLHSRQDEGPIPSGNPYALSLSMSAILAPFKKIYDLIDGFVLIMLTAIGIALIAPEIGTGDGPLRLGVVTNLGVALVFFLHGAALSRDKLVAGAKHWRLHVFVQSFTYIVFPIVGVLLMLSLRNTLPPELLLGVFYLCALPSTVSSSVAMTSMARGNVPGAIFNATISGLIGMALTPLLMGLVISASGASMPLGRALMGVALQLLLPFALGQAARPLIGNWLAKKKQITNKIDRGVIVLIVYSSFCDATAAGLWHQYHWQTIGAVMGIAAVLLFVILGTTTFTARRLGFSVEDEITAVFCGSKKSLANGIPMAKILFAGHPALGLLVLPLMVYHQLQLIVCSVIAARYANRDDVETREAVRA”, the protein production entry was “failed”.
